Test results published in patent EP3632934A1 (F. Hoffmann-La Roche AG, dated 2020).

Target: T1, human OX40 (Sino Biological Inc) (human, UniProt P43489 29-216)
T1 construct: Bought soluble protein used as SPR analyte; also called huOX40
T1 sequence: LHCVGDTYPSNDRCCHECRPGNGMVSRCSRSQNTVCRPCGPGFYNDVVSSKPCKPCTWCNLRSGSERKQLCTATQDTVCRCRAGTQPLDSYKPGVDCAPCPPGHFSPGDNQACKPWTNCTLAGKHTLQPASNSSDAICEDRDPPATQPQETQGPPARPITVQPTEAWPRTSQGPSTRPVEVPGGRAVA
Assay: SPR, Biacore; against parent 1A7.gr.1

B1: 1A7.gr.SGDS (antibody, V domains shown)
VH: EVQLVQSGAEVKKPGASVKVSCKASGYTFTDSYMSWVRQAPGQGLEWIGDMYPDSGDSSYNQKFRERVTITRDTSTSTAYLELSSLRSEDTAVYYCVLAPRWYFSVWGQGTLVTVSS
VL: DIQMTQSPSSLSASVGDRVTITCRASQDISNYLNWYQQKPGKAPKLLIYYTSRLRSGVPSRFSGSGSGTDFTLTISSLQPEDFATYYCQQGHTLPPTFGQGTKVEIK
In the case of B1, the “fold loss of binding affinity against 1A7.gr.1” value is reported as 2 fold.
